Biological target: T1, CviJ I restriction endonuclease (Chlorella virus IL-3A (infected Chlorella NC64A)) (UniProt P52283)
T1 sequence: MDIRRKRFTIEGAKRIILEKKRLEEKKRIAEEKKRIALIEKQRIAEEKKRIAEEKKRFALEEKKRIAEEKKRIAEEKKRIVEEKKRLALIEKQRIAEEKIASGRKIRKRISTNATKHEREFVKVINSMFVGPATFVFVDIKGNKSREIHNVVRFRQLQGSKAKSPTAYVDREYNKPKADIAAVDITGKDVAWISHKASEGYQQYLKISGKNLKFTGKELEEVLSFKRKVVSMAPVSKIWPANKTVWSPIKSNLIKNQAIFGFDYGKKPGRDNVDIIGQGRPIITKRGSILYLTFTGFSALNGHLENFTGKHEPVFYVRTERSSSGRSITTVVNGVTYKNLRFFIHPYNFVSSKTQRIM
Experiment: cleavage_in_vitro
Settings: for activity (% of cleaved junctions): CviJ I* complete digest; for activity (% of cloned junctions): CviJ I** partial digest

Sequence: GGCC (double strand) [GGCC site]
- activity (% of cleaved junctions) (24 cleaved, 1 not cleaved): 12
- activity (% of cloned junctions): 21.1

Sequence: GGCA (double strand) [GGCA site]
- activity (% of cleaved junctions) (11 cleaved, 3 not cleaved): 5.5
- activity (% of cloned junctions): 0

Sequence: TGCG (double strand) [TGCG site]
- activity (% of cleaved junctions) (3 not cleaved): 0
- activity (% of cloned junctions): 0

Sequence: AGCG (double strand) [AGCG site]
- activity (% of cleaved junctions) (12 cleaved, 11 not cleaved): 6
- activity (% of cloned junctions): 0

Sequence: GGCT (double strand) [GGCT site]
- activity (% of cleaved junctions) (13 cleaved, 0 not cleaved): 6.5
- activity (% of cloned junctions): 15.8

Sequence: TGCT (double strand) [TGCT site]
- activity (% of cleaved junctions) (10 cleaved, 5 not cleaved): 5
- activity (% of cloned junctions): 1.3

Sequence: AGCT (double strand) [AGCT site]
- activity (% of cleaved junctions) (35 cleaved, 0 not cleaved): 17.5
- activity (% of cloned junctions): 32.9

Sequence: CGCG (double strand) [CGCG site]
- activity (% of cleaved junctions) (27 not cleaved): 0
- activity (% of cloned junctions): 0

Sequence: CGCT (double strand) [CGCT site]
- activity (% of cleaved junctions) (17 cleaved, 7 not cleaved): 8.5
- activity (% of cloned junctions): 2.6

Sequence: AGCA (double strand) [AGCA site]
- activity (% of cleaved junctions) (13 cleaved, 5 not cleaved): 6.5
- activity (% of cloned junctions): 1.3

Sequence: CGCA (double strand) [CGCA site]
- activity (% of cleaved junctions) (12 not cleaved): 0
- activity (% of cloned junctions): 0

Sequence: CGCC (double strand) [CGCC site]
- activity (% of cleaved junctions) (11 cleaved, 4 not cleaved): 5.5
- activity (% of cloned junctions): 0

Sequence: TGCA (double strand) [TGCA site]
- activity (% of cleaved junctions) (19 not cleaved): 0
- activity (% of cloned junctions): 0

Sequence: GGCG (double strand) [GGCG site]
- activity (% of cleaved junctions) (18 cleaved, 8 not cleaved): 9
- activity (% of cloned junctions): 5.2

Sequence: TGCC (double strand) [TGCC site]
- activity (% of cleaved junctions) (13 cleaved, 10 not cleaved): 6.5
- activity (% of cloned junctions): 2.6

Sequence: AGCC (double strand) [AGCC site]
- activity (% of cleaved junctions) (23 cleaved, 1 not cleaved): 11.5
- activity (% of cloned junctions) (Mg, ATP, DTT, 20% DMSO, low salt): 17.1

Reference: US5604098
